In patent publication US20210380703A1 (RIGEL PHARMACEUTICALS, published 2021):

B1: 373_F08 (antibody, V domains shown)
VH: EVQLLESGGGLVQPGGSLRLSCAASGFTFSSYSMNWVRQAPGKGLEWVSGINYNGGYTSYADSVKGRFTISRDNSKNTLYLQMNSLRAEDTAVYYCARGANWHDTALDYWGQGTLVTVSS
VL: DIQMTQSPSSLSASVGDRVTITCRASQSILTYLNWYQQKPGKAPKLLIYAATSRASGVPSRFSGSGSGTDFTLTISSLQPEDFATYYCQQSYDTPLTFGGGTKVEIK
B2: 367_A02 (antibody, V domains shown)
VH: EVQLLESGGGLVQPGGSLRLSCAASGFTFDSYGMNWVRQAPGKGLEWVSSINYNSGYKGYADSVKGRFTISRDNSKNTLYLQMNSLRAEDTAVYYCARGATWHDTHLDYWGQGTLVTVSS
VL: DIQMTQSPSSLSASVGDRVTITCRASQSIISYLNWYQQKPGKAPKLLIYAVTSRASGVPSRFSGSGSGTDFTLTISSLQPEDFATYYCQQSYDTPLTFGGGTKVEIK
B3: 368_G03 (antibody, V domains shown)
VH: EVQLLESGGGLVQPGGSLRLSCAASGFTFSSYSMNWVRQAPGKGLEWVSGINYNSGYTSYADSVKGRFTISRDNSKNTLYLQMNSLRAEDTAVYYCARGATWHDTALDYWGQGTLVTVSS
VL: DIQMTQSPSSLSASVGDRVTITCRASQSILSYLNWYQQKPGKAPKLVIYAATSRASGVPSRFSGSGSGTDFTLTISSLQPEDFATYYCQQSYDTPLTFGGGTKVEIK
B4: 369_C12 (antibody, V domains shown)
VH: EVQLLESGGGLVQPGGSLRLSCAASGFTFSSYGMNWVRQAPGKGLEWVANINYNGGYKGYADSVKGRFTISRDNSKNTLYLQMNSLRAEDTAVYYCARGATWHDTHLDYWGQGTLVTVSS
VL: DIQMTQSPSSLSASVGDRVTITCRASQSILTYLNWYQQKPGKAPKLLIYAATSRHSGVPSRFSGSGSGTDFTLTISSLQPEDFATYYCQQSYDTPLTFGGGTKVEIK
B5: 369_F09 (antibody, V domains shown)
VH: EVQLLESGGGLVQPGGSLRLSCAASGFTFSSYGMHWVRQAPGKGLEWVAGINYNGGYTSYADSVKGRFTISRDNSKNTLYLQMNSLRAEDTAVYYCARGATWHDTHLDYWGQGTLVTVSS
VL: DIQMTQSPSSLSASVGDRVTITCRASQSILTYVNWYQQKPGKAPKLLIYAATSRASGVPSRFSGSGSGTDFTLTISSLQPEDFATYYCQQSYDSPLTFGGGTKVEIK
B6: 369_H08 (antibody, V domains shown)
VH: EVQLLESGGGLVQPGGSLRLSCAASGFTFSSYSMNWVRQAPGKGLEWVAGINYNSGYKSYADSVKGRFTISRDNSKNTLYLQMNSLRAEDTAVYYCARGATWHDTHLDYWGQGTLVTVSS
VL: DIQMTQSPSSLSASVGDRVTITCRASQSILSYVNWYQQKPGKAPKLVIYAATSLASGVPSRFSGSGSGTDFTLTISSLQPEDFATYYCQQSYESPLTFGGGTKVEIK
B7: 369_H12 (antibody, V domains shown)
VH: EVQLLESGGGLVQPGGSLRLSCAASGFTFSSYSMNWVRQAPGKGLEWVAGINYNGGYKSYADSVKGRFTISRDNSKNTLYLQMNSLRAEDTAVYYCARGATWHDTHLDYWGQGTLVTVSS
VL: DIQMTQSPSSLSASVGDRVTITCRASQSIVTYVNWYQQKPGKAPKLVIYAATSRASGVPSRFSGSGSGTDFTLTISSLQPEDFATYYCQQSYDSPLTFGGGTKVEIK
B8: 370_C06 (antibody, V domains shown)
VH: EVQLLESGGGLVQPGGSLRLSCAASGFTFSSYSMNWVRQAPGKGLEWVANINYNGGYKSYADSVKGRFTISRDNSKNTLYLQMNSLRAEDTAVYYCARGATWHDTHLDYWGQGTLVTVSS
VL: DIQMTQSPSSLSASVGDRVTITCRASQSILTYVNWYQQKPGKAPKLLIYAASSLQSGVPSRFSGSGSGTDFTLTISSLQPEDFATYYCQQSYSTPLTFGGGTKVEIK
B9: 370_C07 (antibody, V domains shown)
VH: EVQLLESGGGLVQPGGSLRLSCAASGFTFSSYSMNWVRQAPGKGLEWVANINYNGGYKSYADSVKGRFTISRDNSKNTLYLQMNSLRAEDTAVYYCARGATWHDTHLDYWGQGTLVTVSS
VL: DIQMTQSPSSLSASVGDRVTITCRASQSILSYLNWYQQKPGKAPKLLIYAATSRHSGVPSRFSGSGSGTDFTLTISSLQPEDFATYYCQQSYESPLTFGGGTKVEIK
B10: 370_D03 (antibody, V domains shown)
VH: EVQLLESGGGLVQPGGSLRLSCAASGFTFSSYSMNWVRQAPGKGLEWVASINYNGGYTSYADSVKGRFTISRDNSKNTLYLQMNSLRAEDTAVYYCARGATWHDTHLDYWGQGTLVTVSS
VL: DIQMTQSPSSLSASVGDRVTITCRASQSIITYLNWYQQKPGKAPKLLIYAATSRASGVPSRFSGSGSGTDFTLTISSLQPEDFATYYCQQSYDLPLTFGGGTKVEIK
B11: 370_E04 (antibody, V domains shown)
VH: EVQLLESGGGLVQPGGSLRLSCAASGFTFSSYSMNWVRQAPGKGLEWVANINYNGGYKGYADSVKGRFTISRDNSKNTLYLQMNSLRAEDTAVYYCARGATWHDTHLDYWGQGTLVTVSS
VL: DIQMTQSPSSLSASVGDRVTITCRASQSILTYLNWYQQKPGKAPKLLIYAVTSLHSGVPSRFSGSGSGTDFTLTISSLQPEDFATYYCQQSYETPLTFGGGTKVEIK
B12: 370_F12 (antibody, V domains shown)
VH: EVQLLESGGGLVQPGGSLRLSCAASGFTFSDYSMNWVRQAPGKGLEWVANINYNGGYTGYADSVKGRFTISRDNSKNTLYLQMNSLRAEDTAVYYCARGATWHDTHLDYWGQGTLVTVSS
VL: DIQMTQSPSSLSASVGDRVTITCRASQSILSYLNWYQQKPGKAPKLLIYAASSLQSGVPSRFSGSGSGTDFTLTISSLQPEDFATYYCQQSYDSPLTFGGGTKVEIK
B13: 371_B01 (antibody, V domains shown)
VH: EVQLLESGGGLVQPGGSLRLSCAASGFTFDSYSMNWVRQAPGKGLEWVSNINYNSGYTGYADSVKGRFTISRDNSKNTLYLQMNSLRAEDTAVYYCARGATWHDTHLDYWGQGTLVTVSS
VL: DIQMTQSPSSLSASVGDRVTITCRASQSILSYVNWYQQKPGKAPKLLIYAATSLASGVPSRFSGSGSGTDFTLTISSLQPEDFATYYCQQSYDLPLTFGGGTKVEIK
B14: 372_A04 (antibody, V domains shown)
VH: EVQLLESGGGLVQPGGSLRLSCAASGFTFDSYSMNWVRQAPGKGLEWVSGINYNSGYTSYADSVKGRFTISRDNSKNTLYLQMNSLRAEDTAVYYCARSANWHDTALDYWGQGTLVTVSS
VL: DIQMTQSPSSLSASVGDRVTITCRASQSILTYLNWYQQKPGKAPKLVIYAATSRASGVPSRFSGSGSGTDFTLTISSLQPEDFATYYCQQSYETPLTFGGGTKVEIK
B15: 372_F03 (antibody, V domains shown)
VH: EVQLLESGGGLVQPGGSLRLSCAASGFTFSSYGMNWVRQAPGKGLEWVAGINYNGGYTSYADSVKGRFTISRDNSKNTLYLQMNSLRAEDTAVYYCARSANWHDTALDYWGQGTLVTVSS
VL: DIQMTQSPSSLSASVGDRVTITCRASQSILSYLNWYQQKPGKAPKLVIYAATSRASGVPSRFSGSGSGTDFTLTISSLQPEDFATYYCQQSYDTPLTFGGGTKVEIK
B16: 372_F09 (antibody, V domains shown)
VH: EVQLLESGGGLVQPGGSLRLSCAASGFTFDSYSMNWVRQAPGKGLEWVANINYNSGYKGYADSVKGRFTISRDNSKNTLYLQMNSLRAEDTAVYYCARSANWHDTALDYWGQGTLVTVSS
VL: DIQMTQSPSSLSASVGDRVTITCRASQSILTYLNWYQQKPGKAPKLVIYAATSLASGVPSRFSGSGSGTDFTLTISSLQPEDFATYYCQQSYSSPLTFGGGTKVEIK
B17: 373_B04 (antibody, V domains shown)
VH: EVQLLESGGGLVQPGGSLRLSCAASGFTFSSYGMNWVRQAPGKGLEWVAGINYNSGYKGYADSVKGRFTISRDNSKNTLYLQMNSLRAEDTAVYYCARSANWHDTALDYWGQGTLVTVSS
VL: DIQMTQSPSSLSASVGDRVTITCRASQSILTYLNWYQQKPGKAPKLLIYAATSRASGVPSRFSGSGSGTDFTLTISSLQPEDFATYYCQQSYETPLTFGGGTKVEIK
B18: 374_B04 (antibody, V domains shown)
VH: EVQLLESGGGLVQPGGSLRLSCAASGFTFSSYSMNWVRQAPGKGLEWVSNINYNSGYTGYADSVKGRFTISRDNSKNTLYLQMNSLRAEDTAVYYCARSANWHDTALDYWGQGTLVTVSS
VL: DIQMTQSPSSLSASVGDRVTITCRASQSIVSYLNWYQQKPGKAPKLLIYAVTSRASGVPSRFSGSGSGTDFTLTISSLQPEDFATYYCQQSYESPLTFGGGTKVEIK
B19: 374_C08 (antibody, V domains shown)
VH: EVQLLESGGGLVQPGGSLRLSCAASGFTFDSYGMNWVRQAPGKGLEWVSGINYNSGYKSYADSVKGRFTISRDNSKNTLYLQMNSLRAEDTAVYYCARSATWHDTALDYWGQGTLVTVSS
VL: DIQMTQSPSSLSASVGDRVTITCRASQSILSYVNWYQQKPGKAPKLLIYAVTSRASGVPSRFSGSGSGTDFTLTISSLQPEDFATYYCQQSYDSPLTFGGGTKVEIK
B20: 374_E05 (antibody, V domains shown)
VH: EVQLLESGGGLVQPGGSLRLSCAASGFTFSSYSMNWVRQAPGKGLEWVAGINYNGGYTSYADSVKGRFTISRDNSKNTLYLQMNSLRAEDTAVYYCARSANWHDTALDYWGQGTLVTVSS
VL: DIQMTQSPSSLSASVGDRVTITCRASQSILSFVNWYQQKPGKAPKLVIYAATSRASGVPSRFSGSGSGTDFTLTISSLQPEDFATYYCQQSYNLPLTFGGGTKVEIK
B21: 376_C06 (antibody, V domains shown)
VH: EVQLLESGGGLVQPGGSLRLSCAASGFTFSSYGMNWVRQAPGKGLEWVAGINYNGGYTSYADSVKGRFTISRDNSKNTLYLQMNSLRAEDTAVYYCARSATWHDTALDYWGQGTLVTVSS
VL: DIQMTQSPSSLSASVGDRVTITCRASQSILSYLNWYQQKPGKAPKLVIYAATSRASGVPSRFSGSGSGTDFTLTISSLQPEDFATYYCQQSYDSPLTFGGGTKVEIK

Each binder was assayed against ACVR2A on primary human myotubes (human, UniProt P27037 20-513) (assay: cell-based or functional assay).
Target sequence in this assay (P27037 20-513): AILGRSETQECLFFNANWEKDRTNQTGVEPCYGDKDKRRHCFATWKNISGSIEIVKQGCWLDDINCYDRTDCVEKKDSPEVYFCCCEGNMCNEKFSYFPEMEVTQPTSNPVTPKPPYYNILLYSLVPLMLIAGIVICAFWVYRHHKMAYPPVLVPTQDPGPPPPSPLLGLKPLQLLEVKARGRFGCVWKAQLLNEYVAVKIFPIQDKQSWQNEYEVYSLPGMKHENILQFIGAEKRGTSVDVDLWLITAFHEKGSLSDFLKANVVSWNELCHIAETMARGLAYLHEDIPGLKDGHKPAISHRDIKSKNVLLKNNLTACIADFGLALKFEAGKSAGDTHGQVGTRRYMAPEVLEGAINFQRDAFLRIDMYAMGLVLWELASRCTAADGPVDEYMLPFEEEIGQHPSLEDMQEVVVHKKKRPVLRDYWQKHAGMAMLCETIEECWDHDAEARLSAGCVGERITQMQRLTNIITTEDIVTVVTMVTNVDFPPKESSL

Point of comparison: B3, “Phospho-SMAD3 Human Skeletal Muscle GDF8” value 0.299. Against it:
- B1 — lower, 0.005
- B2 — lower, 0.159
- B4 — lower, 0.0094
- B5 — lower, 0.0325
- B6 — lower, 0.0308
- B7 — lower, 0.0303
- B8 — lower, 0.0111
- B9 — lower, 0.0044
- B10 — lower, 0.0165
- B11 — lower, 0.0136
- B12 — lower, 0.0066
- B13 — lower, 0.0076

Biological target: ACVR2A on primary human myotubes (human, UniProt P27037 20-513)
Test: cell-based or functional assay
Remark: another data set of the same source
Target sequence in this assay (P27037 20-513): as above

Point of comparison: B20, “Phospho-SMAD3 Human Skeletal Muscle GDF8” value 0.0497. Against it:
- B14 — lower, 0.0193
- B15 — higher, 0.0646
- B16 — lower, 0.018
- B17 — lower, 0.0093
- B18 — lower, 0.0093
- B19 — higher, 0.585
- B21 — lower, 0.0107
